According to CN111138528A:

Biological target: BDBV GP (BDBV)
Assay: ELISA, GP coated at 1 μg/mL, 5A8 from 10 μg/mL in 1:3 dilutions

B1: 单克隆抗体5A8 (antibody, V domains shown)
VH: EVQLLESGGGLVKPGGSLRLSCAASGFTFSDYYMNWIRQAPGKGLEWVSYISSSGKTIYYADSVKGRFTISRDNAKKSLYLQMNSLRAEDTAVYYCARDREIVISTTILLGSDHYAMDVWGQGTTVTVSS
VL: DIQMTQSPFTLSASVGDRVTITCRASQSINSYLNWYQQKPGKAPKLLIYSASSLQSGVPSRFSGSGSGTDFTLTISSLQPEDFAIYYCQQTYRTPYTFGQGTKVEIKT
EC50: 0.126 µg/mL | fold weaker binding than to EBOV GP: 10 fold
